Reference: the supplement of paper PMC9112550, “Optimization of the antimicrobial peptide Bac7 by deep mutational scanning” (BMC Biology, 2022)

Tested on: Escherichia coli TOP10
Assay: shrunken log2 fold change of peptide-encoding DNA abundance (4.5 h post-induction vs induction); higher = less antimicrobial activity (less host growth inhibition)
Conditions: time post-induction: 4.5 h; library: site-saturation at positions 5, 18, 19, 20
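Further: peptides expressed intracellularly from a pBAD plasmid library in pooled LB shake-flask culture, induced with 0.3% L-arabinose, DNA abundance read by NGS, three biological replicates, DESeq2 with apeglm shrinkage.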

Sequence | shrunken log2 fold change
RRIRVRPPRLPRPRPRPEQSPRP | 0.362
RRIRTRPPRLPRPRPRPVHMPRP | -0.123
RRIRKRPPRLPRPRPRPMMHPRP | 0.0869
RRIRVRPPRLPRPRPRPDTDPRP | -0.646
RRIRHRPPRLPRPRPRPGIYPRP | 0.0151
RRIRHRPPRLPRPRPRPEFYPRP | -0.0662
RRIRQRPPRLPRPRPRPCHMPRP | -0.519
RRIRQRPPRLPRPRPRPAINPRP | -0.171
RRIRERPPRLPRPRPRPARVPRP | -0.505
RRIRRRPPRLPRPRPRPESYPRP | 0.0503
RRIRNRPPRLPRPRPRPFRTPRP | -0.066
RRIRQRPPRLPRPRPRPYKTPRP | -0.0141
RRIRKRPPRLPRPRPRPIVAPRP | 0.399
RRIRGRPPRLPRPRPRPDESPRP | 0.0316
RRIRHRPPRLPRPRPRPHKIPRP | -0.215
RRIRCRPPRLPRPRPRPMQCPRP | 0.0136
RRIRGRPPRLPRPRPRPKFGPRP | 0.241
RRIRLRPPRLPRPRPRPNMAPRP | -0.511
RRIRIRPPRLPRPRPRPEILPRP | -0.0902
RRIRMRPPRLPRPRPRPWHPPRP | -0.297
RRIRWRPPRLPRPRPRPNFNPRP | -0.198
RRIRRRPPRLPRPRPRPHFAPRP | 0.382
RRIRFRPPRLPRPRPRPEAQPRP | 0.383
RRIRERPPRLPRPRPRPCWLPRP | -0.0175
RRIRPRPPRLPRPRPRPSDIPRP | -0.417

Sequence | shrunken log2 fold change
RRIRQRPPRLPRPRPRPCKQPRP | 0.0108
RRIRMRPPRLPRPRPRPRCQPRP | 0.00313
RRIRVRPPRLPRPRPRPTRCPRP | 0.404
RRIRDRPPRLPRPRPRPGHMPRP | -0.0968
RRIRPRPPRLPRPRPRPYWKPRP | -0.189
RRIRNRPPRLPRPRPRPSFSPRP | -0.322
RRIRVRPPRLPRPRPRPFFFPRP | 0.151
RRIRIRPPRLPRPRPRPDHSPRP | -0.152
RRIRCRPPRLPRPRPRPDDGPRP | -0.0952
RRIRGRPPRLPRPRPRPYARPRP | 0.416
RRIRRRPPRLPRPRPRPDCEPRP | 0.363
RRIRQRPPRLPRPRPRPNGYPRP | -0.121
RRIRQRPPRLPRPRPRPTPEPRP | 0.0617
RRIRVRPPRLPRPRPRPHQWPRP | -0.239
RRIRHRPPRLPRPRPRPNHDPRP | -0.719
RRIRRRPPRLPRPRPRPSHTPRP | 0.278
RRIRKRPPRLPRPRPRPLGWPRP | 1.11
RRIRVRPPRLPRPRPRPVMLPRP | -0.0602
RRIRNRPPRLPRPRPRPQHIPRP | -0.114
RRIRNRPPRLPRPRPRPQQPPRP | 0.0468
RRIRYRPPRLPRPRPRPCVVPRP | -0.0208
RRIRSRPPRLPRPRPRPKTPPRP | 0.405
RRIRARPPRLPRPRPRPVDWPRP | 1.01
RRIRERPPRLPRPRPRPITSPRP | 0.0102
RRIRCRPPRLPRPRPRPNEIPRP | -0.0995

Sequence | shrunken log2 fold change
RRIRVRPPRLPRPRPRPFEYPRP | -0.151
RRIRGRPPRLPRPRPRPNRPPRP | -0.211
RRIRQRPPRLPRPRPRPPVRPRP | 0.739
RRIRRRPPRLPRPRPRPPCRPRP | 1.09
RRIRQRPPRLPRPRPRPYTAPRP | -0.219
RRIRVRPPRLPRPRPRPKQIPRP | -0.0455
RRIRQRPPRLPRPRPRPHIHPRP | -0.476
RRIRERPPRLPRPRPRPSSYPRP | -1.12
RRIRRRPPRLPRPRPRPRHKPRP | 1.89
RRIRSRPPRLPRPRPRPRSKPRP | 0.0951
RRIRMRPPRLPRPRPRPHDRPRP | 0.0623
RRIRSRPPRLPRPRPRPMSKPRP | -0.032
RRIRSRPPRLPRPRPRPCAYPRP | -0.431
RRIRLRPPRLPRPRPRPPLYPRP | 1.61
RRIRERPPRLPRPRPRPICWPRP | 0.0372
RRIRDRPPRLPRPRPRPMHWPRP | 0.591
RRIRERPPRLPRPRPRPCIRPRP | -0.152
RRIRVRPPRLPRPRPRPGCFPRP | 0.15
RRIRMRPPRLPRPRPRPDQFPRP | -0.00541
RRIRARPPRLPRPRPRPLGPPRP | 0.337
RRIRQRPPRLPRPRPRPMLGPRP | 0.0371
RRIRARPPRLPRPRPRPKGRPRP | 0.368
RRIRPRPPRLPRPRPRPTEQPRP | 0.307
RRIRDRPPRLPRPRPRPCKHPRP | -0.181
RRIRHRPPRLPRPRPRPVYAPRP | -0.375

Sequence | shrunken log2 fold change
RRIRIRPPRLPRPRPRPANGPRP | 0.0224
RRIRVRPPRLPRPRPRPKYSPRP | -0.122
RRIRLRPPRLPRPRPRPICMPRP | -0.456
RRIRVRPPRLPRPRPRPEKDPRP | 0.188
RRIRVRPPRLPRPRPRPIQMPRP | -0.0987
RRIRPRPPRLPRPRPRPYRPPRP | -0.257
RRIRTRPPRLPRPRPRPLRTPRP | 0.26
RRIRCRPPRLPRPRPRPPKPPRP | 0.692
RRIRERPPRLPRPRPRPLWGPRP | 0.0859
RRIRPRPPRLPRPRPRPNWVPRP | -0.2
RRIRDRPPRLPRPRPRPIWYPRP | -0.0481
RRIRERPPRLPRPRPRPLYDPRP | -1.62
RRIRERPPRLPRPRPRPIQNPRP | 0.0753
RRIRGRPPRLPRPRPRPFLMPRP | 0.364
RRIRRRPPRLPRPRPRPKSRPRP | 0.174
RRIRVRPPRLPRPRPRPTREPRP | 0.59
RRIRHRPPRLPRPRPRPFYNPRP | -0.632
RRIRTRPPRLPRPRPRPMKIPRP | 0.0884
RRIRPRPPRLPRPRPRPAATPRP | 0.809
RRIRWRPPRLPRPRPRPQYNPRP | -0.554
RRIRRRPPRLPRPRPRPPHDPRP | 1.49
RRIRTRPPRLPRPRPRPMYVPRP | 0.0319
RRIRERPPRLPRPRPRPPGKPRP | 0.28
RRIRWRPPRLPRPRPRPYPRPRP | -0.632
RRIRSRPPRLPRPRPRPTCRPRP | -0.0471

Sequence | shrunken log2 fold change
RRIRFRPPRLPRPRPRPPPRPRP | 1.84
RRIRLRPPRLPRPRPRPSLEPRP | -0.209
RRIRTRPPRLPRPRPRPPYCPRP | -0.112
RRIRNRPPRLPRPRPRPQFMPRP | -0.709
RRIRMRPPRLPRPRPRPHAFPRP | 0.179
RRIRCRPPRLPRPRPRPYCEPRP | -0.195
RRIRRRPPRLPRPRPRPYAEPRP | 0.132
RRIRIRPPRLPRPRPRPSRRPRP | 0.35
RRIRFRPPRLPRPRPRPHDDPRP | -0.531
RRIRYRPPRLPRPRPRPNCAPRP | -0.214
RRIRVRPPRLPRPRPRPAPVPRP | 0.349
RRIRKRPPRLPRPRPRPICLPRP | 0.141
RRIRTRPPRLPRPRPRPRAVPRP | 0.617
RRIRLRPPRLPRPRPRPSTVPRP | -0.938
RRIRKRPPRLPRPRPRPPMWPRP | 0.297
RRIRRRPPRLPRPRPRPWYWPRP | -0.039
RRIRIRPPRLPRPRPRPCITPRP | -0.0326
RRIRNRPPRLPRPRPRPAHSPRP | 0.111
RRIRCRPPRLPRPRPRPYVHPRP | -1.53
RRIRGRPPRLPRPRPRPRKDPRP | 0.726
RRIRLRPPRLPRPRPRPSRLPRP | -0.0544
RRIRCRPPRLPRPRPRPYPWPRP | -1.29
RRIRCRPPRLPRPRPRPHFAPRP | 0.0672
RRIRLRPPRLPRPRPRPYNDPRP | -0.0858
RRIRSRPPRLPRPRPRPPWNPRP | 0.0621
